Experimental data from PMC5913134, “The IL-33-PIN1-IRAK-M axis is critical for type 2 immunity in IL-33-induced allergic airway inflammation” (Nature Communications, 2018).

Tests used:
IRAK-M = IRAK-M protein stability, cycloheximide chase; format: cell-based; conditions: for IRAK-M half-life: cycloheximide chase
Procedure: Fig. 4 PIN1 increases IRAK-M protein stabilization. a After IRAK-M and GFP were coexpressed in WT and PIN1 KO MEFs for 24 h, cells were split equally into 5 dishes. 24 h later cells were treated with cyclohexamide and harvested to monitor IRAK-M, GFP and PIN1 levels at the time points indicated. b Quantification of 3 independent experiments as in a. c WT MEFs stably expressing the TET on inducible short hairpin for PIN1 (shPin1) or pLKO as a control, were expressed with IRAK-M, followed by induction with Doxycycline for 18 h prior to the cyclohexamide chase. d Quantification of 3 independent experiments as in c. e BMDCs from WT or PIN1 KO mice were treated with IL-33 and the levels of IRAK-M were monitored at different time points after induction. f Quantification of 3 independent experiments as in e. g PIN1 KO MEFs were expressed with IRAK-M alone or in combination with PIN1 or its mutants W34A or K63A for 24 h, followed by the cyclohexamide chase to assay IRAK-M stability. h Quantification of 3 independent experiments as in g. i IRAK-M or its different mutants; S110A, S110E and P111A were expressed in WT MEFs, followed by the cyclohexamide chase to assay IRAK-M stability. j Quantification of 3 independent experiments as in i. k IRAK-M or its different mutants were stably expressed in DC2.4 cells, followed by the cyclohexamide chase to monitor IRAK-M stability. l Quantification of 3 independent experiments as in k. The data were analyzed by a Student’s two-tailed t test and the values are reported as mean ± standard errors of the means (SEM). *- statistical significance (P < 0.05), **- significance (P < 0.01)

PIN1-IRAK-M interaction = assay: Co-immunoprecipitation of PIN1 and IRAK-M; format: binding; conditions: for PIN1 interaction (CO-IP), IRAK-M constructs: HEK293 cells, after IL-33 treatment
Procedure: Fig. 2 IL-33 induces IRAK-M phosphorylation and binding to PIN1. a GST PIN1 pulldown assay with DC2.4 cell extracts either non-treated or treated with IL-33 (100 ng/ml) or LPS (100ng/ml) for 1 h. […] The cells were washed with fresh medium and treated with 100 ng/ml IL-33 for the indicated times prior to IRAK-M immunoprecipitation. d DC2.4 cells stably expressing IRAK-M were treated with IL-33 and at the indicated time points were subjected to CO-IP using anti-PIN1 antibody and blotted for IRAK-M. e HEK293 cells were transfected with different IRAK-M constructs expressing the N’ terminal domain (aa1-220), the middle portion of the protein (aa220-440) or the C’ terminal domain (aa 440-630), and then treated with IL-33, followed by CO-IP for PIN1. f DC2.4 cells stably expressing IRAK-M were treated with IL-33 and subjected to GST or GST-PIN1 pull-down.
Cells from one 10-cm dish were homogenized in lysis buffer containing 150 mM NaCl, 1% NP-40, 0.5% deoxycholate, 0.1% SDS, 50 mM Tris-HCl (pH 7.7), 1 mM phenylmethylsulfonyl fluoride (PMSF), 1 mM dithiothreitol, and protease inhibitors. Clarified supernatants were incubated with pre incubated immobilized beads rProtein A agarose beads (RepliGen) premixed with PIN1, GFP or IRAK-M antibody or, as a control, IgG overnight at 4 °C. The beads were washed extensively with lysis buffer before elution in SDS sample buffer.

asthmatic patients = assay: Segmental allergen (Derp1) challenge in asthmatic patients; format: in vivo, human
Excerpt: Fig. 7 IRAK-M expression is elevated in asthmatic human samples after Derp1 segmental allergic challenge. a Representative H&E staining and PAS staining of lung biopsies before and after Derp1 segmental challenge, as well as BALF and brush cytospins before and after treatment stained with Giemsa (n = 4). b Cytospin slides of brushing, total BALF cells, BALF CD15 + and CD205 + cells samples were immune stained for IRAK-M. c Quantification of IRAK-M expression in total BALF cells, BALF CD15 + and CD205 + cells samples as in b using Velocity program. d Total BALF cells were immune stained for PIN1 and pS71PIN1 and quantified using Velocity program e. f RNA was extracted from BALF cellular contents and analyzed for the relative expression of Il6, Csf3, Cxcl2 and Ccl5 by qRT-PCR. The data were analyzed by a Student’s two-tailed t test and the values are reported as mean ± standard errors of the means (SEM). *- statistical significance (P < 0.05), **- significance (P < 0.01). Scale bar = 50 µm
For human subject study, non-smokers with a history of mild asthma with an FEV1 greater than 70% of predicted, using only intermittent beta-agonists for treatment, who were between the ages of 18 and 55 were recruited to undergo segmental allergen challenge via bronchoscopy. Participants were selected on the basis of both a positive methacholine PC20 < 8 mg/mL and a positive skin prick test to Dermatophagoides pternyssinus (DerP1). A positive intradermal that yielded a reaction at or below the concentration threshold of 0.1 AU/mL following the methods set forth in Parulekar et al., was also required, although only the DerP1 antigen was used.
After recoding baseline vitals, PO2, FEV1, PEFR, appropriate anesthetic medication was administered. Then, a fiberoptic bronchoscope with bronchoalveolar lavage (BAL) was performed by sequential instillation and removal of 5 aliquots of 50 mL normal saline in the lingula. Brushings and biopsies were taken after the BAL. The bronchoscope was then re-wedged on the contra lateral side (right middle lobe) in a readily identifiable sub-segment. A safety dose (100 × the minimum dose that caused reaction during the intradermal) of 5 mL of allergen in a prefilled syringe was instilled followed by 5 mL of air and the wedge was maintained for 5 minutes. Subject’s safety parameters were assessed after administration of the sub-threshold allergen dose. If the investigator determined the subject had well tolerated the safety dose, full dose of allergen (1000 × the minimum dose that caused reaction during the intradermal) in a pre-filled syringe was administered followed by 5 ml of air and the wedge was maintained for 5 min. Antigen lot to lot consistency was maintained between the participants intradermal skin test and segmental challenge. Participants were monitored for safety until 2 h after the procedure. After allergen challenge, if the subject developed systemic allergic reaction such as diffuse urticaria, angioedema, stridor, hypotension, syncope or any other serious adverse event, subject would be dropped from the study and only be followed up for safety reasons. Participants were not be allowed to leave for home until their condition was stable as assessed by the study physician.
Pre-bronchoscopy and bronchoscopy eligibility procedures were followed as detailed above prior to 2nd bronchoscopy. Specimens taken were BAL first, followed by brushings, and finally biopsies. These were taken where the segmental allergen challenge was placed (right middle lobe). Drug and post-procedure follow up and monitoring were followed as detailed above.

B1: PIN1: peptidyl-prolyl cis-trans isomerase PIN1 (protein, UniProt Q9QUR7 1-165, looked up)
Peptidyl-prolyl cis-trans …: MADEEKLPPGWEKRMSRSSGRVYYFNHITNASQWERPSGGSTVGGSSKNGQGEPAKVRCSHLLVKHSQSRRPSSWRQEKITRSKEEALELINGYIQKIKSGEEDFESLASQFSDCSSAKARGDLGPFSRGQMQKPFEDASFALRTGEMSGPVFTDSGIHIILRTE
increase in IRAK-M half-life (IRAK-M; PIN1-deficient MEFs (text PIN1 KD, Fig. 4g legend PIN1 KO) co-expressing IRAK-M with PIN1 or mutant): more than 50%

B2: S110A: IRAK-M mutant, Ser110 substituted to Ala (protein)
chain: MAGNCGARGALSAHTLLFDLPPALLGELCAVLDSCDGALGWRGLAERLSSSWLDVRHIEKYVDQGKSGTRELLWSWAQKNKTIGDLLQVLQEMGHRRAIHLITNYGAVLAPSEKSYQEGGFPNILFKETANVTVDNVLIPEHNEKGILLKSSISFQNIIEGTRNFHKDFLIGEGEIFEVYRVEIQNLTYAVKLFKQEKKMQCKKHWKRFLSELEVLLLFHHPNILELAAYFTETEKFCLIYPYMRNGTLFDRLQCVGDTAPLPWHIRIGILIGISKAIHYLHNVQPCSVICGSISSANILLDDQFQPKLTDFAMAHFRSHLEHQSCTINMTSSSSKHLWYMPEEYIRQGKLSIKTDVYSFGIVIMEVLTGCRVVLDDPKHIQLRDLLRELMEKRGLDSCLSFLDKKVPPCPRNFSAKLFCLAGRCAATRAKLRPSMDEVLNTLESTQASLYFAEDPPTSLKSFRCPSPLFLENVPSIPVEDDESQNNNLLPSDEGLRIDRMTQKTPFECSQSEVMFLSLDKKPESKRNEEACNMPSSSCEESWFPKYIVPSQDLRPYKVNIDPSSEAPGHSCRSRPVESSCSSKFSWDEYEQYKKE
PIN1 interaction (CO-IP), IRAK-M constructs (PIN1-IRAK-M interaction): abolished the PIN1-IRAK-M interaction | decrease of IRAK-M protein stability (IRAK-M; mutant IRAK-M, WT MEFs, reproduced in DC2.4 cells): ~ 50%

B3: IRAK-M: Interleukin receptor associated kinase M (protein, UniProt Q8K4B2 1-609, looked up)
Interleukin-1 …: MAGRCGARGALSPQLLLFDLPPALLGELCGILDSCDGPLGWRGLAERLSNSWLDVRHIEKYVNQGKSGTRELLWSWAQKNKTIGDLLEVLQDMGHQRAIHLIINYGVSWTPSVQTHHELPFPSFPPEVKHACRENDPGPLEPANVTVDNVLVPEHNEKGTLQKTPISFQSILEGTKHFHKDFLIGEGEIFEVYRVDIRNQAYAVKLFKQEKKMQLKKHWKRFLSELEVLLLFRHPHILELAAYFTETEKLCLVYPYMSNGTLFDRLQCTNGTTPLSWHVRISVLIGIAKAIQYLHNTQPCAVICGNVSSANILLDDQLQPKLTDFAAAHFRPNLEQQSSTINMTGGGRKHLWYMPEEYIRQGRLSVKTDVYSFGIVIMEVLTGCKVVLDDPKHVQLRDLLMELMEKRGLDSCLSFLDRKIPPCPRNFSAKLFSLAGRCVATKAKLRPTMDEVLSSLESTQPSLYFAEDPPTSLKSFRCPSPLFLDNVPSIPVEDDENQNNHSVPPKEVLGTDRVTQKTPFECSQSEVTFLGLDRNRGNRGSEADCNVPSSSHEECWSPELVAPSQDLSPTVISLGSSWEVPGHSYGSKPMEKRCSSGLFCSEHEQSKKQ
PIN1 interaction (CO-IP), IRAK-M mutants (PIN1-IRAK-M interaction; stably expressing DC2.4 cells, with/without IL-33): evident only after IL-33 stimulation | IRAK-M half-life (IRAK-M; PIN1 KO MEFs): < 3 h | IRAK-M half-life (IRAK-M; WT MEFs): ~ 6 h | reduction of IRAK-M half-life (IRAK-M; inducible PIN1 knock down (KD), MEFs): more than 50%

B4: Derp1: segmental allergen of Dermatophagoides pteronyssinus (protein, UniProt P08176 99-320, looked up)
Peptidase 1: TNACSINGNAPAEIDLRQMRTVTPIRMQGGCGSCWAFSGVAATESAYLAYRNQSLDLAEQELVDCASQHGCHGDTIPRGIEYIQHNGVVQESYYRYVAREQSCRRPNAQRFGISNYCQIYPPNVNKIREALAQTHSAIAVIIGIKDLDAFRHYDGRTIIQRDNGYQPNYHAVNIVGYSNAQGVDYWIVRNSWDTNWGDNGYGYFAANIDLMMIEEYPYVVIL
immunological reaction (granulocyte infiltration, tissue remodeling) (asthmatic patients; asthmatic patients, segmental Derp1, n = 4): massive immunological reaction | IRAK-M expression in bronchial epithelial cells (asthmatic patients; biopsies, before and after Derp1 challenge): elevated | IRAK-M protein expression in lung brush samples (asthmatic patients; brush cytospins, after Derp1 challenge): greatly elevated | IRAK-M expression in CD15+ and CD205+ BALF cells (asthmatic patients; sorted eosinophils (CD15+) and dendritic/monocytes (CD205+), after Derp1): highly elevated | PIN1 protein expression (asthmatic patients; total BALF cytospins, Derp1): did not seem to change | pS71 PIN1 phosphorylation (asthmatic patients; total BALF cytospins, Derp1): decrease in pS71 phosphorylation | IRAK-M expression in total BALF cells (asthmatic patients; total BALF, after Derp1 challenge): highly elevated

B5: IRAK-M N-terminal domain: N-terminal (aa 1-220) of IRAK-M (protein, UniProt Q8K4B2 1-220, looked up, fragment)
chain: MAGRCGARGALSPQLLLFDLPPALLGELCGILDSCDGPLGWRGLAERLSNSWLDVRHIEKYVNQGKSGTRELLWSWAQKNKTIGDLLEVLQDMGHQRAIHLIINYGVSWTPSVQTHHELPFPSFPPEVKHACRENDPGPLEPANVTVDNVLVPEHNEKGTLQKTPISFQSILEGTKHFHKDFLIGEGEIFEVYRVDIRNQAYAVKLFKQEKKMQLKKHWK
PIN1 interaction (CO-IP), IRAK-M constructs (PIN1-IRAK-M interaction): mainly evident
